From paper PMC2925294
Read-outs that look alike come from different tables or passages of the source.

Legend:
Test in all cases: cryo-EM structure
[1] = molecular target: epsilon15 bacteriophage capsid stapling protein gp10 (epsilon15 bacteriophage)
[2] = molecular target: epsilon15 bacteriophage capsid stapling protein gp10 (epsilon15 bacteriophage); remark: listed apart in the source
[3] = molecular target: epsilon15 bacteriophage tail hub (epsilon15 bacteriophage)
[4] = molecular target: epsilon15 bacteriophage tail-spike (gp20) (epsilon15 bacteriophage)

“epsilon15 bacteriophage capsid stapling protein gp10 (natural protein)” was tested, and the stoichiometry N [1] was 2 and the stoichiometry N [2] was 2.

“epsilon15 bacteriophage tail hub (natural protein)” was tested, and the stoichiometry N [3] was 6.

In the case of “epsilon15 bacteriophage tail-spike (gp20) (natural protein)”, the stoichiometry N [4] was 3.
